In patent publication US10640547B2, “Immunotherapy against melanoma and other cancers” (IMMATICS BIOTECHNOLOGIES GMBH, priority 2016, dated 2020):

target: HLA-A*02:01 (Homo sapiens, UniProt P04439, D140Y/D185E/D98H/E176V/E277Q/G131W/G231S/I119V/I121R/I166T/I218V/L300P/L318F/N151K/N90K/P208A/P217A/Q86G/Q94H/R138H/R169H/T345S); experiment: MHC binding assay (UV-ligand exchange, β2m ELISA); conditions: MHC class I binding score; binding to HLA-A*02:01 ranged by peptide exchange yield (UV-ligand exchange, β2m ELISA)
Text: Candidate peptides for T cell based therapies according to the present invention were further tested for their MHC binding capacity (affinity). The individual peptide-MHC complexes were produced by UV-ligand exchange, where a UV-sensitive peptide is cleaved upon UV-irradiation, and exchanged with the peptide of interest as analyzed. Only peptide candidates that can effectively bind and stabilize the peptide-receptive MHC molecules prevent dissociation of the MHC complexes. To determine the yield of the exchange reaction, an ELISA was performed based on the detection of the light chain (β2m) of stabilized MHC complexes. The assay was performed as generally described in Rodenko et al. (Rodenko et al., 2006).
96 well MAXISorp plates (NUNC) were coated over night with 2 ug/ml streptavidin in PBS at room temperature, washed 4× and blocked for 1 h at 37° C. in 2% BSA containing blocking buffer. Refolded HLA-A*02:01/MLA-001 monomers served as standards, covering the range of 15-500 ng/ml. Peptide-MHC monomers of the UV-exchange reaction were diluted 100 fold in blocking buffer. Samples were incubated for 1 h at 37° C., washed four times, incubated with 2 ug/ml HRP conjugated anti-β2m for 1 h at 37° C., washed again and detected with TMB solution that is stopped with […]. Absorption was measured at 450 nm. Candidate peptides that show a high exchange yield (preferably higher than 50%, most preferred higher than 75%) are generally preferred for a generation and production of antibodies or fragments thereof, and/or T cell receptors or fragments thereof, as they show sufficient avidity to the MHC molecules and prevent dissociation of the MHC complexes.

Peptide exchange	Substance
++++ (>75% = ++++)	205 (SLKSKVLSV; listed as Homo sapiens) [compound 205]
++++ (>75% = ++++)	75 (FMYAGQLTL; listed as Homo sapiens) [compound 75]
+++ (>50 = +++)	127 (TLISDIEAVKA; listed as Homo sapiens) [compound 127]
++++ (>75% = ++++)	161 (GLCDSIITI; listed as Homo sapiens) [compound 161]
+++ (>50 = +++)	163 (RLMANPEALKI; listed as Homo sapiens) [compound 163]
++++ (>75% = ++++)	27 (TLWYVPLSL; listed as Homo sapiens) [compound 27]
++++ (>75% = ++++)	207 (VQIGDIVTV; listed as Homo sapiens) [compound 207]
++ (>20% = ++)	114 (VVDDIVSKL; listed as Homo sapiens) [compound 114]
+++ (>50 = +++)	153 (RLDEVSREL; listed as Homo sapiens) [compound 153]
++++ (>75% = ++++)	225 (VLFGAVITGA; listed as Homo sapiens) [compound 225]
+ (>10% = +)	198 (EVVDKINQV; listed as Homo sapiens) [compound 198]
+++ (>50 = +++)	30 (VLFPMDLAL; listed as Homo sapiens) [compound 30]
++++ (>75% = ++++)	71 (SLDEVAVSL; listed as Homo sapiens) [compound 71]
+++ (>50 = +++)	179 (ALDDTVLQV; listed as Homo sapiens) [compound 179]
+++ (>50 = +++)	220 (SAAEPTPAV; listed as Homo sapiens) [compound 220]
++++ (>75% = ++++)	134 (LLDEVLHTM; listed as Homo sapiens) [compound 134]
+++ (>50 = +++)	203 (FLNEDISKL; listed as Homo sapiens) [compound 203]
+++ (>50 = +++)	26 (KIEDLIKYL; listed as Homo sapiens) [compound 26]
++ (>20% = ++)	199 (AIHTAILTL; listed as Homo sapiens) [compound 199]
+++ (>50 = +++)	142 (FVDGSAIQV; listed as Homo sapiens) [compound 142]
+++ (>50 = +++)	215 (EVISKLYAV; listed as Homo sapiens) [compound 215]
+++ (>50 = +++)	57 (GILSFLPVL; listed as Homo sapiens) [compound 57]
++ (>20% = ++)	50 (HLDQIFQNL; listed as Homo sapiens) [compound 50]
+++ (>50 = +++)	95 (LLDALQHEL; listed as Homo sapiens) [compound 95]
+++ (>50 = +++)	111 (VLDVSFNRL; listed as Homo sapiens) [compound 111]

Peptide exchange	Substance
++++ (>75% = ++++)	168 (KLLAATLLL; listed as Homo sapiens) [compound 168]
+++ (>50 = +++)	41 (LLDDPTNAHFI; listed as Homo sapiens) [compound 41]
++++ (>75% = ++++)	66 (VMFEYGMRL; listed as Homo sapiens) [compound 66]
+++ (>50 = +++)	100 (NLREILQNV; listed as Homo sapiens) [compound 100]
+ (>10% = +)	63 (SIDDSDPIV; listed as Homo sapiens) [compound 63]
+++ (>50 = +++)	122 (YVDDFGVSV; listed as Homo sapiens) [compound 122]
+++ (>50 = +++)	188 (VVVDPIQSV; listed as Homo sapiens) [compound 188]
+++ (>50 = +++)	130 (GLVDVLYTA; listed as Homo sapiens) [compound 130]
+++ (>50 = +++)	89 (ILDNSPAFL; listed as Homo sapiens) [compound 89]
+++ (>50 = +++)	193 (ALDEPTTNL; listed as Homo sapiens) [compound 193]
++++ (>75% = ++++)	125 (YLFAFLNHL; listed as Homo sapiens) [compound 125]
++++ (>75% = ++++)	60 (ILPEAQDYFL; listed as Homo sapiens) [compound 60]
+++ (>50 = +++)	23 (FLGDPPPGL; listed as Homo sapiens) [compound 23]
+++ (>50 = +++)	137 (ILPSNLLTV; listed as Homo sapiens) [compound 137]
+++ (>50 = +++)	221 (SLLPTEQPRL; listed as Homo sapiens) [compound 221]
++++ (>75% = ++++)	166 (SIIPPLFTV; listed as Homo sapiens) [compound 166]
+++ (>50 = +++)	97 (NLDATVTAL; listed as Homo sapiens) [compound 97]
++++ (>75% = ++++)	227 (FLLEQEKTQAL; listed as Homo sapiens) [compound 227]
++++ (>75% = ++++)	222 (LLSEIEEHL; listed as Homo sapiens) [compound 222]
+++ (>50 = +++)	148 (TLKDIVQTV; listed as Homo sapiens) [compound 148]
+++ (>50 = +++)	105 (SLKQTVVTL; listed as Homo sapiens) [compound 105]
+++ (>50 = +++)	54 (LLDSGAFHL; listed as Homo sapiens) [compound 54]
++++ (>75% = ++++)	1 (FLDVKELML; listed as Homo sapiens) [compound 1]
+++ (>50 = +++)	82 (GIDDLHISL; listed as Homo sapiens) [compound 82]
+++ (>50 = +++)	93 (LLAKAVQNV; listed as Homo sapiens) [compound 93]

Peptide exchange	Substance
+++ (>50 = +++)	204 (RMDEEFTKI; listed as Homo sapiens) [compound 204]
+++ (>50 = +++)	39 (ALPPPPASI; listed as Homo sapiens) [compound 39]
+ (>10% = +)	55 (NLDKLYHGL; listed as Homo sapiens) [compound 55]
+++ (>50 = +++)	110 (VLDTLTKVL; listed as Homo sapiens) [compound 110]
++ (>20% = ++)	224 (ILDEPTNHL; listed as Homo sapiens) [compound 224]
++++ (>75% = ++++)	176 (TLYEQEIEV; listed as Homo sapiens) [compound 176]
+++ (>50 = +++)	157 (HLFETISQA; listed as Homo sapiens) [compound 157]
++++ (>75% = ++++)	160 (ALDDISESI; listed as Homo sapiens) [compound 160]
+++ (>50 = +++)	86 (HTLPHEIVVNL; listed as Homo sapiens) [compound 86]
+++ (>50 = +++)	2 (VLLGENVEL; listed as Homo sapiens) [compound 2]
++++ (>75% = ++++)	5 (ILDEGHILQL; listed as Homo sapiens) [compound 5]
++++ (>75% = ++++)	106 (TLSEICEFI; listed as Homo sapiens) [compound 106]
+++ (>50 = +++)	173 (ALDDIIYRA; listed as Homo sapiens) [compound 173]
+ (>10% = +)	52 (NLDYAILKL; listed as Homo sapiens) [compound 52]
++ (>20% = ++)	65 (TTLGGFAKV; listed as Homo sapiens) [compound 65]
+ (>10% = +)	73 (ELDKIYETL; listed as Homo sapiens) [compound 73]
++++ (>75% = ++++)	178 (FAYDGKDYIA; listed as Homo sapiens) [compound 178]
++++ (>75% = ++++)	182 (SVALVIHNV; listed as Homo sapiens) [compound 182]
+++ (>50 = +++)	79 (AVDNILLKL; listed as Homo sapiens) [compound 79]
++++ (>75% = ++++)	230 (HLDEARTLL; listed as Homo sapiens) [compound 230]
++++ (>75% = ++++)	236 (GLDSGFHSV; listed as Homo sapiens) [compound 236]
++++ (>75% = ++++)	175 (VLDSVDVRL; listed as Homo sapiens) [compound 175]
++++ (>75% = ++++)	120 (QLMEGKVVL; listed as Homo sapiens) [compound 120]
